Drawing on paper PMC5906670, “Structural basis of epilepsy-related ligand–receptor complex LGI1–ADAM22” (Nature Communications, 2018), this text covers percent of parent for 18 variants.

B1: LGI1 (wild type, pull-down with ADAM22/23 ECD-FLAG) [human] / ADAM23 ECD-FLAG [human] (parent complex)
chain 1: KKPAKPKCPAVCTCTKDNALCENARSIPRTVPPDVISLSFVRSGFTEISEGSFLFTPSLQLLLFTSNSFDVISDDAFIGLPHLEYLFIENNNIKSISRHTFRGLKSLIHLSLANNNLQTLPKDIFKGLDSLTNVDLRGNSFNCDCKLKWLVEWLGHTNATVEDIYCEGPPEYKKRKINSLSSKDFDCIITEFAKSQDLPYQSLSIDTFSYLNDEYVVIAQPFTGKCIFLEWDHVEKTFRNYDNITGTSTVVCKPIVIETQLYVIVAQLFGGSHIYKRDSFANKFIKIQDIEILKIRKPNDIETFKIENNWYFVVADSSKAGFTTIYKWNGNGFYSHQSLHAWYRDTDVEYLEIVRTPQTLRTPHLILSSSSQRPVIYQWNKATQLFTNQTDIPNMEDVYAVKHFSVKGDVYICLTRFIGDSKVMKWGGSSFQDIQRMPSRGSMVFQPLQINNYQYAILGSDYSFTQVYNWDAEKAKFVKFQELNVQAPRSFTHVSINKRNFLFASSFKGNTQIYKHVIVDLSA
chain 2: AVNPSRGIFEEMKYLELMIVNDHKTYKKHRSSHAHTNNFAKSVVNLVDSIYKEQLNTRVVLVAVETWTEKDQIDITTNPVQMLHEFSKYRQRIKQHADAVHLISRVTFHYKRSSLSYFGGVCSRTRGVGVNEYGLPMAVAQVLSQSLAQNLGIQWEPSSRKPKCDCTESWGGCIMEETGVSHSRKFSKCSILEYRDFLQRGGGACLFNRPTKLFEPTECGNGYVEAGEECDCGFHVECYGLCCKKCSLSNGAHCSDGPCCNNTSCLFQPRGYECRDAVNECDITEYCTGDSGQCPPNLHKQDGYACNQNQGRCYNGECKTRDNQCQYIWGTKAAGSDKFCYEKLNTEGTEKGNCGKDGDRWIQCSKHDVFCGFLLCTNLTRAPRIGQLQGEIIPTSFYHQGRVIDCSGAHVVLDDDTDVGYVEDGTPCGPSMMCLDRKCLQIQALNMSSCPLDSKGKVCSGHGVCSNEATCICDFTWAGTDCSIRDPVRNLHPPKDEGPKGPSA
B2: LGI1 (wild type, pull-down with ADAM22/23 ECD-FLAG) [human] / ADAM22 ECD-FLAG [human] (parent complex)
chain 1: B1 chain 1
chain 2: SKRQLRRYPRNVEEETKYIELMIVNDHLMFKKHRLSVVHTNTYAKSVVNMADLIYKDQLKTRIVLVAMETWATDNKFAISENPLITLREFMKYRRDFIKEKSDAVHLFSGSQFESSRSGAAYIGGICSLLKGGGVNEFGKTDLMAVTLAQSLAHNIGIISDKRKLASGECKCEDTWSGCIMGDTGYYLPKKFTQCNIEEYHDFLNSGGGACLFNKPSKLLDPPECGNGFIETGEECDCGTPAECVLEGAECCKKCTLTQDSQCSDGLCCKKCKFQPMGTVCREAVNDCDIRETCSGNSSQCAPNIHKMDGYSCDGVQGICFGGRCKTRDRQCKYIWGQKVTASDKYCYEKLNIEGTEKGNCGKDKDTWIQCNKRDVLCGYLLCTNIGNIPRLGELDGEITSTLVVQQGRTLNCSGGHVKLEEDVDLGYVEDGTPCGPQMMCLEHRCLPVASFNFSTCLSSKEGTICSGNGVCSNELKCVCNRHWIGSDCNTYFPHNDDAKTGITLSG

The first assay covers variants of B1. Description: pull-down; anti-FLAG antibody agarose; proteins secreted from HEK293T cells; n = 4 independent experiments; read off a plot.
As for chain 1 V250A, the percent of parent is ~20 % of WT.

Turning to chain 1 Y399A, the percent of parent was ~4 % of WT.

In the case of chain 1 R344A, the percent of parent was ~6 % of WT.

chain 1 L268A: the percent of parent is ~14 % of WT.

With chain 1 M443A, the percent of parent is ~10 % of WT.

As for chain 1 R296A, chain 1 K297A, the percent of parent is ~9 % of WT.

As to chain 1 K297A, the percent of parent was ~46 % of WT.

Regarding chain 1 F222A, the percent of parent was ~16 % of WT.

As to chain 1 K319A, the percent of parent was ~7 % of WT.

Variants of B2 are the subject of a further assay. The assay is described as above.
Consider chain 1 R296A, chain 1 K297A, for which the percent of parent is ~15 % of WT.

Take chain 1 Y399A: the percent of parent is ~4 % of WT.

chain 1 K297A: the percent of parent was ~64 % of WT.

With chain 1 V250A, the percent of parent was ~35 % of WT.

Regarding chain 1 R296A, the percent of parent is ~85 % of WT.

Regarding chain 1 L268A, the percent of parent was ~8 % of WT.

Regarding chain 1 F222A, the percent of parent was ~37 % of WT.

As for chain 1 M443A, the percent of parent was ~9 % of WT.

In the case of chain 1 R344A, the percent of parent was ~33 % of WT.
